Data as given in paper doi:10.1101/2024.03.19.585775, “Septin filament assembly assist the lateral organization of membranes” (bioRxiv, 2024).
Values joined by “and” are separate entries in the source; they are usually repeats but may differ in a detail not shown here. Equal entries are not always repeated.

B1: wild-type septin-GFP hetero-octamer (Cdc11-Cdc12-Cdc3-Cdc10-Cdc10-Cdc3-Cdc12-Cdc11) (complex, S. cerevisiae)
chain 1: MSGIIDASSALRKRKHLKRGITFTVMIVGQSGSGRSTFINTLCGQQVVDTSTTILLPTDTSTEIDLQLREETVELEDDEGVKIQLNIIDTPGFGDSLDNSPSFEIISDYIRHQYDEILLEESRVRRNPRFKDGRVHCCLYLINPTGHGLKEIDVEFIRQLGSLVNIIPVISKSDSLTRDELKLNKKLIMEDIDRWNLPIYNFPFDEDEISDEDYETNMYLRTLLPFAIIGSNEVYEMGGDVGTIRGRKYPWGILDVEDSSISDFVILRNALLISHLHDLKNYTHEILYERYRTEALSGESVAAESIRPNLTKLNGSSSSSTTTRRNTNPFKQSNNINNDVLNPASDMHGQSTGENNETYMTREEQIRLEEERLKAFEERVQQELLLKRQELLQREKELREIEARLEKEAKIKQEE
chain 2: MSAATATAAPVPPPVGISNLPNQRYKIVNEEGGTFTVMLCGESGLGKTTFINTLFQTVLKRADGQQHRQEPIRKTVEIDITRALLEEKHFELRVNVIDTPGFGDNVNNNKAWQPLVDFIDDQHDSYMRQEQQPYRTKKFDLRVHAVLYFIRPTGHGLKPIDIETMKRLSTRANLIPVIAKADTLTAQELQQFKSRIRQVIEAQEIRIFTPPLDADSKEDAKSGSNPDSAAVEHARQLIEAMPFAIVGSEKKFDNGQGTQVVARKYPWGLVEIENDSHCDFRKLRALLLRTYLLDLISTTQEMHYETYRRLRLEGHENTGEGNEDFTLPAIAPARKLSHNPRYKEEENALKKYFTDQVKAEEQRFRQWEQNIVNERIRLNGDLEEIQGKVKKLEEQVKSLQVKKSHLK
chain 3: MSLKEEQVSIKQDPEQEERQHDQFNDVQIKQESQDHDGVDSQYTNGTQNDDSERFEAAESDVKVEPGLGMGITSSQSEKGQVLPDQPEIKFIRRQINGYVGFANLPKQWHRRSIKNGFSFNLLCVGPDGIGKTTLMKTLFNNDDIEANLVKDYEEELANDQEEEEGQGEGHENQSQEQRHKVKIKSYESVIEENGVKLNLNVIDTEGFGDFLNNDQKSWDPIIKEIDSRFDQYLDAENKINRHSINDKRIHACLYFIEPTGHYLKPLDLKFMQSVYEKCNLIPVIAKSDILTDEEILSFKKTIMNQLIQSNIELFKPPIYSNDDAENSHLSERLFSSLPYAVIGSNDIVENYSGNQVRGRSYPWGVIEVDNDNHSDFNLLKNLLIKQFMEELKERTSKILYENYRSSKLAKLGIKQDNSVFKEFDPISKQQEEKTLHEAKLAKLEIEMKTVFQQKVSEKEKKLQKSETELFARHKEMKEKLTKQLKALEDKKKQLELSINSASPNVNHSPVPTKKKGFLR
chain 4: MDPLSSVQPASYVGFDTITNQIEHRLLKKGFQFNIMVVGQSGLGKSTLINTLFASHLIDSATGDDISALPVTKTTEMKISTHTLVEDRVRLNINVIDTPGFGDFIDNSKAWEPIVKYIKEQHSQYLRKELTAQRERFITDTRVHAILYFLQPNGKELSRLDVEALKRLTEIANVIPVIGKSDTLTLDERTEFRELIQNEFEKYNFKIYPYDSEELTDEELELNRSVRSIIPFAVVGSENEIEINGETFRGRKTRWSAINVEDINQCDFVYLREFLIRTHLQDLIETTSYIHYEGFRARQLIALKENANSRSSAHMSSNAIQR
notes: Cdc11, septin of S. cerevisiae; Cdc12, septin of S. cerevisiae; Cdc3, septin of S. cerevisiae; Cdc10, septin of S. cerevisiae; Tag ends are read from the printed construct names MBP-Cdc12/(6xHis)Cdc3-GFP; The purified complex is named without MBP; also called GFP-tagged septin octamers; wild-type septin-GFP complexes; source: E. coli BL21 (DE3) Rosetta, co-expressed from two plasmids, purified …
B2: septin-GFP hetero-octamer containing ΔAH-Cdc12 (C-terminal deletion of Cdc12 residues 390-407) (complex, S. cerevisiae)
chain 1: B1 chain 1
chain 2: MSAATATAAPVPPPVGISNLPNQRYKIVNEEGGTFTVMLCGESGLGKTTFINTLFQTVLKRADGQQHRQEPIRKTVEIDITRALLEEKHFELRVNVIDTPGFGDNVNNNKAWQPLVDFIDDQHDSYMRQEQQPYRTKKFDLRVHAVLYFIRPTGHGLKPIDIETMKRLSTRANLIPVIAKADTLTAQELQQFKSRIRQVIEAQEIRIFTPPLDADSKEDAKSGSNPDSAAVEHARQLIEAMPFAIVGSEKKFDNGQGTQVVARKYPWGLVEIENDSHCDFRKLRALLLRTYLLDLISTTQEMHYETYRRLRLEGHENTGEGNEDFTLPAIAPARKLSHNPRYKEEENALKKYFTDQVKAEEQRFRQWEQNIVNERIRLNGDLEEIQGKV
chain 3: B1 chain 3
chain 4: B1 chain 4
notes: Cdc11, septin of S. cerevisiae; Cdc12, septin of S. cerevisiae; Cdc3, septin of S. cerevisiae; Cdc10, septin of S. cerevisiae; also called ΔAH-Cdc12 mutant; ΔAH mutant; source: E. coli BL21 (DE3) Rosetta, co-expressed, purified (amylose resin, Ni-NTA-agarose), same protocol as wild type; not shown: GFP, C-terminal, kept; copies: 2 + 2 + 2 + 2
B3: septin-GFP hetero-octamer containing ΔCTE-Cdc12 (deletion of the C-terminal extension of Cdc12, residues 339-407) (complex, S. cerevisiae)
chain 1: B1 chain 1
chain 2: MSAATATAAPVPPPVGISNLPNQRYKIVNEEGGTFTVMLCGESGLGKTTFINTLFQTVLKRADGQQHRQEPIRKTVEIDITRALLEEKHFELRVNVIDTPGFGDNVNNNKAWQPLVDFIDDQHDSYMRQEQQPYRTKKFDLRVHAVLYFIRPTGHGLKPIDIETMKRLSTRANLIPVIAKADTLTAQELQQFKSRIRQVIEAQEIRIFTPPLDADSKEDAKSGSNPDSAAVEHARQLIEAMPFAIVGSEKKFDNGQGTQVVARKYPWGLVEIENDSHCDFRKLRALLLRTYLLDLISTTQEMHYETYRRLRLEGHENTGEGNEDFTLPAIAPARKLSH
chain 3: B1 chain 3
chain 4: B1 chain 4
notes: Cdc11, septin of S. cerevisiae; Cdc12, septin of S. cerevisiae; Cdc3, septin of S. cerevisiae; Cdc10, septin of S. cerevisiae; also called ΔCTE-Cdc12 mutant; Cdc12 mutants; source: E. coli BL21 (DE3) Rosetta, co-expressed, purified (amylose resin, Ni-NTA-agarose), same protocol as wild type; not shown: GFP, C-terminal, kept; copies: 2 + 2 + 2 + 2

Key:
[1] = target: the molecule itself; assay: negative-stain transmission electron microscopy; octamers to filaments; 100 nM (legend; methods: 0.005 mg/ml) GFP-tagged septin hetero-octamers on lipid monolayers of 77.5% Egg-PC, 20% Liver-PI, 2.5% Brain-PI(4,5)P2; 20 mM Tris-HCl pH 8, 2 mM MgCl2, 400 µM GTP, 150 mM NaCl; overnight at 4 °C; 2% uranyl acetate
[2] = target: the molecule itself; assay: atomic force microscopy; octamers to filaments; 5 nM septin-GFP incubated overnight on 2.5% mol PI(4,5)P2 supported lipid bilayers; imaged at room temperature in 20 mM Tris-HCl pH 8, 2 mM MgCl2, 150 mM NaCl

Protein	stoichiometry N [1]	stoichiometry N [2]
B1	2 octamers and 3 octamers	5 octamers
B2	~4 octamers	
B3	~4 octamers	
